The text below walks through data of IntAct's records for PubMed 22045334.

Sequences and labels used below:
B1: Mothers against decapentaplegic homolog 3 (Homo sapiens), P84022 (parent)
chain: MSSILPFTPPIVKRLLGWKKGEQNGQEEKWCEKAVKSLVKKLKKTGQLDELEKAITTQNVNTKCITIPRSLDGRLQVSHRKGLPHVIYCRLWRWPDLHSHHELRAMELCEFAFNMKKDEVCVNPYHYQRVETPVLPPVLVPRHTEIPAEFPPLDDYSHSIPENTNFPAGIEPQSNIPETPPPGYLSEDGETSDHQMNHSMDAGSPNLSPNPMSPAHNNLDLQPVTYCEPAFWCSISYYELNQRVGETFHASQPSMTVDGFTDPSNSERFCLGLLSNVNRNAAVELTRRHIGRGVRLYYIGGEVFAECLSDSAIFVQSPNCNQRYGWHPATVCKIPPGCNLKIFNNQEFAALLAQSVNQGFEAVYQLTRMCTIRMSFVKGWGAEYRRQTVTSTPCWIELHLNGPLQWLDKVLTQMGSPSIRCSSVS

The variants in the first assay derive from B1. Particulars: with ubc_human UBC.
As to K333R, the “effect of a mutation on the interaction” value was “decreasing interaction”. Same read-out and setting: to K341R belongs “decreasing interaction”.

K409R: the “effect of a mutation on the interaction” value was “decreasing interaction”.

For the variant K378R, the “effect of a mutation on the interaction” value is “decreasing interaction”.

Variants of B1 are the subject of a further assay. As to conditions: with smuf2_human SMURF2, Q9HAU4.
Take T179V: the “effect of a mutation on the interaction” value is given as “disrupting interaction”.

Regarding T179V;S204A;S208A;S213A, the “effect of a mutation on the interaction” value is reported as “disrupting interaction”.

Another assay covers variants of B1. As to conditions: with smad4_human SMAD4, Q13485.
Consider K333R;K378R;K409R, for which the “effect of a mutation on the interaction” value is given as “decreasing interaction”. Consider K333R;K341R;K378R;K409R, for which the “effect of a mutation on the interaction” value is recorded as “decreasing interaction”.
